# Source: patent publication US20180022820A1
# Key:
# [1] = molecular target: FcRn (Sino Biological Inc, CT009-H08H) (UniProt P55899); assay: SPR (Biacore X100), FcRn-His captured on anti-His IgG chip, antibody as analyte, steady-state affinity fit; second run
# [2] = molecular target: FcRn (Sino Biological Inc, CT009-H08H) (UniProt P55899); assay: SPR (Biacore X100), FcRn-His captured on anti-His IgG chip, antibody as analyte, steady-state affinity fit; mean of the two runs
# [3] = molecular target: FcRn (Sino Biological Inc, CT009-H08H) (UniProt P55899); assay: SPR (Biacore X100), FcRn-His captured on anti-His IgG chip, antibody as analyte, steady-state affinity fit; first run
# UniProt P55899, sequence (P55899 24-297 limits assumed, chain 1 of 2): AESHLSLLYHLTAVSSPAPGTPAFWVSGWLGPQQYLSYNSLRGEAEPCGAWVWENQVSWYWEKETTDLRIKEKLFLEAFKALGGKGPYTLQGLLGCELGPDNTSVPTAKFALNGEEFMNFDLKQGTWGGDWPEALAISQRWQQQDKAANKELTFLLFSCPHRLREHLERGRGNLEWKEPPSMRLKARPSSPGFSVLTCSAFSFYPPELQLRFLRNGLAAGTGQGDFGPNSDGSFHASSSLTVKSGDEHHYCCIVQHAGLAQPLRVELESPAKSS
# UniProt P55899, sequence (P61769 21-119 limits assumed, chain 2 of 2, further chain): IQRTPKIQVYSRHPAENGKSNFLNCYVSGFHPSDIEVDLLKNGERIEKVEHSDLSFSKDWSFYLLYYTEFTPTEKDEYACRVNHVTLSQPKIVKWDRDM
substance,measurement,setting,value
"MIL41: a PERJETA sample as prepared by the inventors, which is in consistence with the amino acid sequence of PERJETA (antibody)",Kd,[1],450 nM
same,Kd,[2],492 nM
same,Kd,[3],534 nM
